Experimental data as given in US20240317846A1 (priority 2021, published 2024).
Values joined by “and” are separate entries in the source; they are usually repeats but may differ in a detail not shown here. Equal entries are not always repeated. “Also recorded” adds a separate entry of the source. Where two headings read alike, the source gives them in different places. Marks after values point to notes of the source that are not given here.

Columns and labels:
[1] = tested on: COVID-19; conditions: RECOVERY trial; cited from earlier work
[2] = tested on: COVID-19; conditions: cited from earlier work; for Mean days to discharge: published cohorts; for Median days to discharge: published lopinavir-ritonavir cohort
[3] = molecular target: glycosylated human GM-CSF (Homo sapiens, UniProt P04141); test: Binding affinity for GM-CSF
[4] = Four completed clinical trials (healthy volunteers, asthma, rheumatoid arthritis, chronic myelomonocytic leukemia); type: in vivo, human; conditions: 113 individuals received lenzilumab
[5] = tested on: severe COVID-19 pneumonia; conditions: for Time to Recovery: placebo 8
[6] = tested on: COVID-19 associated chronic ARDS; type: in vivo, human
Description: Hospitalized subject with confirmed COVID-19 pneumonia and established risk factors for poor outcomes was treated in the ICU for 12 weeks using standard supportive care for chronic acute respiratory distress syndrome (ARDS). […] Patient characteristics, clinical and laboratory outcomes, and adverse events were recorded through duration of hospitalization.

[7] = tested on: SARS-CoV-2 infection; type: in vivo, human; conditions: paper examples
[8] = tested on: severe and critical COVID-19 pneumonia
[9] = tested on: COVID-19 pneumonia
[10] = Pre-clinical toxicology program; type: in vivo; conditions: data not shown
[11] = tested on: severe COVID-19 pneumonia
[12] = lenzilumab alone or in the combination of the example
[13] = one patient, 48 hours post-lenzilumab vs pretreatment
[14] = Lenzilumab group n = 12, control 11
[15] = repeated measures ANOVA, P<0.001

glycosylated human GM-CSF, sequence (P04141 18-144): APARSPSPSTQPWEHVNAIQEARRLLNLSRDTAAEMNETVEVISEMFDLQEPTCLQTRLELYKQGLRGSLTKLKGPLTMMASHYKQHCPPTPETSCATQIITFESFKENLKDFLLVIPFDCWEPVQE

## Tocilizumab: anti-IL6 receptor monoclonal antibody
[1]
  Increased likelihood of survival: 14%
  Increased likelihood of survival without IMV: 18%
  Survival, Hazard Ratio: 1.14
  Ventilator-Free Survival, Hazard Ratio: 1.18
[2]; 2 patients not discharged
  Range of days to discharge: (10-19)* days
[2]
  Mean days to discharge: 13.5 days

## lopinavir and ritonavir [Lopinavir/Ritonavir]
[2]
  Mean days to discharge: 13 days
  Median days to discharge: 13** days
[2]; listed as Lopinavir-Ritonavir
  Median days to discharge: 13 days

B1: Lenzilumab: first-in-class Humaneered recombinant monoclonal antibody targeting human GM-CSF, derived from mouse antibody LMM102 (antibody, chains of the INN, looked up, V domains shown)
VH: QVQLVQSGAEVKKPGASVKVSCKASGYSFTNYYIHWVRQAPGQRLEWMGWINAGNGNTKYSQKFQGRVTITRDTSASTAYMELSSLRSEDTAVYYCVRRQRFPYYFDYWGQGTLVTVSS
VL: EIVLTQSPATLSVSPGERATLSCRASQSVGTNVAWYQQKPGQAPRVLIYSTSSRATGITDRFSGSGSGTDFTLTISRLEPEDFAVYYCQQFNKSPLTFGGGTKVEIK
[3]
  Binding affinity: picomolar range
  Kd: 0.025 nM
  Off-rate: slow off-rate
[4]
  Safety in completed clinical development studies: No treatment emergent serious adverse events (SAEs) or Suspected Unexpected Serious Adverse Reactions (SUSARSs); also recorded: very well tolerated
[5]; Grade ≥3, Lenzilumab N = 255
  Acute kidney injury: 5 (2.0) n (%)
  Acute respiratory distress syndrome: 4 (1.6) n (%)
  Acute respiratory failure: 18 (7.1) n (%)
  Cardiac arrest: 8 (3.1) n (%)
  Cardiac disorders: 15 (5.9) n (%)
  Cardio-respiratory arrest: 3 (1.2) n (%)
  General disorders and administration site conditions: 4 (1.6) n (%)
  Hypotension: 2 (0.8) n (%)
  Hypoxia: 15 (5.9) n (%)
  Infections and infestations: 10 (3.9) n (%)
  Multiple organ dysfunction syndrome: 3 (1.2) n (%)
  Pneumonia bacterial: 0 (0.0) n (%)
  Pulmonary embolism: 5 (2.0) n (%)
  Renal and urinary disorders: 5 (2.0) n (%)
  Respiratory failure: 24 (9.4) n (%)
  Respiratory, thoracic and mediastinal disorders: 64 (25.1) n (%)
  Sepsis: 2 (0.8) n (%)
  Septic shock: 5 (2.0) n (%)
  Shock: 3 (1.2) n (%)
  Vascular disorders: 10 (3.9) n (%)
[5]; ITT (n = 520)
  Kaplan-Meier Estimate of Failure to Achieve SWOV: 18.9%
[5]; ITT subgroup n = 338, placebo 27.8%
  Kaplan-Meier Estimate of Failure to Achieve SWOV: 17.8%
[5]; ITT, CRP <150 mg/L and age <85 (n = 359), placebo 22.6%
  Kaplan-Meier Estimate of Failure to Achieve SWOV: 11.5%
[5]; LIVE-AIR
  Safety and tolerability: safe and well tolerated
[5]; Lenzilumab N = 255
  Any AE ≥ Grade 3: 68 (26.7) n (%)
[5]; from two days after administration for 28 days, only in baseline CRP<150 mg/L
  Serum CRP levels following treatment: decreased CRP levels
[5]; incl. hematologic, liver enzyme abnormalities, pulmonary alveolar proteinosis, infection
  Attributable serious adverse events: no attributable serious adverse events
[5]; mITT (n = 236)
  Time to Recovery: 8 median days
[5]; mITT (n = 236), placebo 13.9
  Mortality: 9.6%
[5]; mITT (n = 236), placebo 21.4
  Incidence IMV, ECMO or death: 15.4%
[5]; mITT (n = 479), Day 28, placebo 22.1%
  Kaplan-Meier Estimate of Failure to Achieve SWOV: 15.6%
[5]; mITT subgroup n = 331 (remdesivir plus steroids per text), placebo 26.9%
  Kaplan-Meier Estimate of Failure to Achieve SWOV: 16.3%
[5]; mITT, >2 days prior (n = 165), placebo 14.4%
  Kaplan-Meier Estimate of Failure to Achieve SWOV: 13.7%
[5]; mITT, CRP <150 mg/L and age <85 (n = 336), placebo 21.1%
  Kaplan-Meier Estimate of Failure to Achieve SWOV: 8.5%
[5]; mITT, CRP <150 mg/L, Age <85 (n = 157)
  Time to Recovery: 7 median days
[5]; mITT, CRP <150 mg/L, Age <85 (n = 157), placebo 13.8
  Mortality: 6.6%
[5]; mITT, CRP <150 mg/L, Age <85 (n = 157), placebo 19.5
  Incidence IMV, ECMO or death: 7.2%
[5]; mITT, CRP<150 mg/L and age<85
  Improvement in Time to Recovery: 36%
[5]; mITT, hospitalized 2 days prior or less (n = 297), placebo 27.6%
  Kaplan-Meier Estimate of Failure to Achieve SWOV: 16.5%
[5]; safety population
  Infusion-related reactions: no infusion-related reactions
[5]; safety population, placebo 29.6%
  Serious adverse events, subjects: 24.7%
[5]; safety population, placebo 32.7%
  Adverse events ≥Grade 3, subjects: 26.7%
[5]; subjects hospitalized <2 days
  Improvement in SWOV: 88%
[6]; person, lenzilumab on week 13 of hospitalization
  Oxygen demand one week post lenzilumab: decreased from high-flow to low-flow nasal cannula
[6]; single patient
  Infusion-related or systemic side effects: No infusion-related or systemic side effects
  Lymphopenia post lenzilumab: appeared to improve
[6]; single patient, discharged on 4L nasal cannula
  Time from lenzilumab to discharge home: Sixteen
[7]
  2 point improvement in the NIAID eight point ordinal hospital scale: faster
  Number of hospital days: reduction
  Permanent pulmonary function impairment: reduction
  Time to recovery (6, 7, or 8 on the eight point ordinal hospital scale): faster
[7]; [12]
  Mortality rates: reduction
  Patients requiring ICU admission: reduction
  Patients requiring mechanical ventilation: reduction
[8]; 11 discharged patients
  Median time to discharge post-lenzilumab: 5 days
[8]; 12 patients
  Infusion reactions: no infusion reactions
  Median time to a 2-point clinical improvement: 5 days
  Patients discharged: 11 of 12
  Patients discharged on home oxygen: 42%
  Patients who required invasive mechanical ventilation: 8.3%
[8]; 12 patients, 600 mg IV every 8 h x3
  Clinical improvement of at least 2 points on the 8-point ordinal clinical endpoints scale, proportion of patients: 92% and 91.7%
[8]; baseline 26.8 pg/mL
  Mean IL-6 on day 3 following lenzilumab: 16.1 pg/mL
[8]; baseline 137.3 mg/L
  Mean CRP on day 3 following lenzilumab: 51.2 mg/L
[8]; baseline 0.89
  Absolute lymphocyte count on day 3: 1.14e+09 L⁻¹
[8]; baseline 5.1
  Mean absolute neutrophil count on day 3 post lenzilumab: 4.8e+09 L⁻¹
[8]; baseline 12.9
  Mean hemoglobin on day 3 post lenzilumab: 11.4 g/dL
[8]; baseline 37.95
  Mean temperature at day 3: 36.97
[8]; baseline 67%
  Proportion of patients with SpO2/FiO2<315 at the end of observation: 8%
[8]; baseline 217.7
  Mean platelet count on day 3 post lenzilumab: 2.618e+11 L⁻¹
[8]; individual patients 2 and 4
  D-dimer after lenzilumab: 1507 ng/mL and 1802 ng/mL
[8]; individual patients 3 and 5
  Ferritin after lenzilumab, at discharge: 571 µg/L and 1223 µg/L
[8]; of 8 patients with SpO2/FiO2<315 at baseline
  Patients whose SpO2/FiO2 improved to >315 on day 1 post-lenzilumab: four
[8]; of 12 patients
  Patients with a 2-point improvement on 8-point ordinal scale: 1 patient
  Patients with ≥3-point improvement on 8-point ordinal scale: 10 patients
[8]; [13]
  Cytokines involved in cytokine storm (G-CSF, MDC, GM-CSF, IL-1α, IFN-γ, IL-7, FLT-3L, IL-1rα, IL-6, IL-12p70): significant reduction
[8]; patient 4, hospital day 3
  LDH after lenzilumab: 388 U/L
[8]; patient 9 pending
  Range of days to discharge: (3-14)*** days
[8]; patients 1-5
  Patients requiring mechanical invasive ventilation: None
[8]; patients febrile at baseline
  Time to fever resolution after lenzilumab administration: ≤ 48 h
[8]; vs Remdesivir, Lopinavir-Ritonavir, Tocilizumab cohorts
  Time to clinical two point improvement, faster than comparator antivirals: more than 50%
[9]; mITT, lenzilumab arm, day 28, placebo 13.9
  Survival, Kaplan-Meier event estimate (mortality): 9.6%
[9]; mITT, lenzilumab arm, day 28, placebo 22.1
  Ventilator-Free Survival, Kaplan-Meier event estimate (IMV and/or death): 15.6%
[9]; phase 3 trial
  SAEs attributed to lenzilumab: none were attributed to lenzilumab
  Safety and tolerability: safe and well-tolerated
[9]; relative to placebo, mITT
  Increased likelihood of survival without IMV: 54%
[9]; relative to placebo, not statistically significant
  Increased likelihood of survival: 39% (NS)
[10]
  No Observed Adverse Effect Level (NOAEL): > 100 mg/kg/week
[11]; 12 patients
  Infusion reactions: no infusion reactions
  Treatment-emergent adverse events attributable to lenzilumab: No treatment-emergent adverse events attributable to lenzilumab
[11]; Kaplan-Meier, log-rank P=0.06
  Ventilator-free survival vs untreated group: favored the lenzilumab cohort
[11]; Lenzilumab group n = 12
  Days to resolution of fever: 2 days
  Incidence of IMV: (8%)
  Incidence of IMV and/or death, number of patients: 1
  Incidence of IMV, number of patients: 1
  Incidence of clinical improvement, number of patients: 11
  Incidence of death: (8%)
  Incidence of death, number of patients: 1
  Patients free of ARDS (SpO2/FiO2 of 315 or higher) by the end of observation: 92%
[11]; [14]
  Days to clinical improvement (median): 5 days
  Days to discharge from hospital (median): 5 days
[11]; after 4 days of treatment, control −0.95
  CRP reduction (mean): 135.8
[11]; baseline 28.6 pg/mL
  IL-6 concentration on day 4 following lenzilumab: 8.52 pg/mL
[11]; baseline 5.1
  Mean absolute neutrophil count on day 4 post lenzilumab: 4.8e+09 L⁻¹
[11]; baseline 12.9
  Mean hemoglobin on day 4 post lenzilumab: 11.4 g/dL
[11]; baseline vs day 4
  IL-6 reduction: 20.1
[11]; baseline vs day 4, control 0.03
  ALC increase (mean): 0.46 × 10*9/L
[11]; baseline vs day 4, control 0.459
  Mean temperature reduction: 1.075
[11]; baseline vs day 4, control 63.2
  PLT increase (mean): 52.5
[11]; day 4, baseline 172.2 mg/L
  Mean CRP after treatment: 36.4 mg/L
[11]; [13]
  Cytokines and chemokines involved in the cytokine storm: significant reduction
[11]; [15]
  Mean SpO2/FiO2 over time post-treatment vs untreated: statistically significant difference
  Proportion of patients free of ARDS over time vs untreated: significantly increased
